Data: patent US20110142851A1 (EMERGENT PRODUCT DEVELOPMENT SEATTLE, published 2011)

B1: TRU(S6)-1002 (Fc fusion)
chain: EVQLLESGGGLVQPGGSLRLSCAASGFTFSFYQMHWVRQAPGKGLEWVSGIYPSGGYTKYADSVKGRFTISRDNSKNTLYLQMNSLRAEDTAVYYCARDLGYGSSWYYFDYWGQGTLVTVSSGGGGSGGGGSGGGGSQSALTQPASVSGSPGQSITISCSGTDSDVGGYNHVSWYQQHPGKAPKLIIYDVDHRPSGISNRFSGSKSGNTASLTISGLQAEDEADYYCSSYRSGSTYVFGTGTKVTVLTGEPKSSDKTHTCPPCPAPEAAGAPSVFLFPPKPKDTLMISRTPEVTCVVVDVSHEDPEVKFNWYVDGVEVHNAKTKPREEQYNSTYRVVSVLTVLHQDWLNGKAYACAVSNKALPAPIEKTISKAKGQPREPQVYTLPPSRDELTKNQVSLTCLVKGFYPSDIAVEWESNGQPENNYKTTPPVLDSDGSFFLYSKLTVDKSRWQQGNVFSCSVMHEALHNHYTQKSLSLSPGK
notes: SMIP (scFv - linker - CH2CH3); also called S6-A2
B2: hu HIL6 AFH monomer (other)
chain: PEEPQLSCFRKSPLSNVVCEWGPRSTPSLTTKAVLLVRKFQNSPAEDFQEPCQYSQESQKFSCQLAVPEGDSSFYIVSMCVASSVGSKFSKTQTFQGCGILQPDPPANITVTAVARNPRWLSVTWQDPHSWNSSFYRLRFELRYRAERSKTFTTWMVKDLQHHCVIHDAWSGLRHVVQLRAQEEFGQGEWSEWSPEAMGTPWTESRSPPAGGGSDVAAPHRQPLTSSERIDKQIRYILDGISALRKETCNKSNMCESSKEALAENNLNLPKMAEKDGCFQSGFNEETCLVKIITGLLEFEVYLEYLQNRFESSEEQARAVQMSTKVLIQFLQKKAKNLDAITTPDPTTNASLLTKLQAQNQWLQDMTTHLILRSFKEFLQSSLRALRQM
B3: SEQ ID NO: 671 (scFv) (scFv)
scFv: EVQLLESGGGLVQPGGSLRLSCAASGFTFSFYQMHWVRQAPGKGLEWVSGIYPSGGYTKYADSVKGRFTISRDNSKNTLYLQMNSLRAEDTAVYYCARDLGYGSSWYYFDYWGQGTLVTVSSGGGGSGGGGSGGGGSQSALTQPASVSGSPGQSITISCSGTDSDVGGYNHVSWYQQHPGKAPKLIIYDVDHRPSGISNRFSGSKSGNTASLTISGLQAEDEADYYCSSYRSGSTYVFGTGTKVTVL
B4: TRU(S6)-1013 (Fc fusion)
chain: EVQLLESGGGLVQPGGSLRLSCAASGFTFSGYVMGWVRQAPGKGLEWVSSISPSGGYTLYADSVKGRFTISRDNSKNTLYLQMNSLRAEDTAVYYCARAFSTRWYWGAFDIWGQGTMVTVSSGGGGSGGGGSGGGGSQDIQMTQSPATLSLSPGERATLSCRASQSVRSYLAWYQQKPGQAPRLLIYDASNRATGIPARFSGSGSGTDFTLTITSLQPEDIATYYCQQYDNLPLTFGGGTKVEIKTGEPKSSDKTHTCPPCPAPEAAGAPSVFLFPPKPKDTLMISRTPEVTCVVVDVSHEDPEVKFNWYVDGVEVHNAKTKPREEQYNSTYRVVSVLTVLHQDWLNGKAYACAVSNKALPAPIEKTISKAKGQPREPQVYTLPPSRDELTKNQVSLTCLVKGFYPSDIAVEWESNGQPENNYKTTPPVLDSDGSFFLYSKLTVDKSRWQQGNVFSCSVMHEALHNHYTQKSLSLSPGK
notes: SMIP (scFv - linker - CH2CH3)
B5: SEQ ID NO: 679 (scFv) (scFv)
scFv: EVQLLESGGGLVQPGGSLRLSCAASGFTFSWYLMHWVRQAPGKGLEWVSGIWPSGGHTLYADSVKGRFTISRDNSKNTLYLQMNSLRAEDTAVYYCAREPLLWFGELSYNWFDPWGQGTLVTVSSGGGGSGGGGSGGGGSQDIQMTQSPSSVSASVGDRVTITCRASQGISSWLAWYQQKPGKAPKLLIYAASSLQSGVPSRFSGSGSGTDFTLTISSLQPEDFATYYCQQANSFPLTFGGGTKVEIK
B6: sIL6R Fc dimer (Fc fusion, UniProt P08887 20-358, looked up)
chain: LAPRRCPAQEVARGVLTSLPGDSVTLTCPGVEPEDNATVHWVLRKPAAGSHPSRWAGMGRRLLLRSVQLHDSGNYSCYRAGRPAGTVHLLVDVPPEEPQLSCFRKSPLSNVVCEWGPRSTPSLTTKAVLLVRKFQNSPAEDFQEPCQYSQESQKFSCQLAVPEGDSSFYIVSMCVASSVGSKFSKTQTFQGCGILQPDPPANITVTAVARNPRWLSVTWQDPHSWNSSFYRLRFELRYRAERSKTFTTWMVKDLQHHCVIHDAWSGLRHVVQLRAQEEFGQGEWSEWSPEAMGTPWTESRSPPAENEVSTPMQALTTNKDDDNILFRDSANATSLPVQD
notes: not shown: Fc

Tests used:
recombinant human IL6 = target: T1, recombinant human IL6 (human, UniProt P05231 30-212); experiment: SPR Biacore T100, binder captured by anti-human Fc
T1 construct: also called rhIL6; IL6 monomer
Protocol: (§1) Binding affinities and kinetic rate constants of interaction of hyper-IL6 (HIL6; monomer or dimer), and its components IL6 and sIL6R, with different anti-HIL6 binding domains in scFv, SMIP, Xceptor and reverse Xceptor formats were determined using a Biacore® T100 instrument (GE Healthcare, Piscataway, N.J.).
(§2) Anti-HIL6 SMIPS, Xceptors, and reverse Xceptors were captured by a monoclonal mouse anti-human Fc, which was covalently conjugated to a carboxylmethyl dextran (CM4) surface via amines using N-ethyl-N′-(3-dimethylaminopropyl)-carbodiimide hydrochloride and N-hydroxysuccinimide. The unoccupied sites of the activated surface were blocked by ethanolamine. […] In every cycle, three different HIL6 binders were captured on flow cells 2, 3 and 4, while flow cell 1 was used as the reference cell. For each cycle, a single concentration of a single HIL6-related molecule was injected for 150 seconds at 35 microliters per minute, and then allowed to dissociate for 300 seconds. At the end of the cycle, the surface was regenerated gently using 3M MgCl₂, which dissociates protein bound to anti-hFc capture antibody. Multiple cycles were performed to study binding of monomeric or dimeric HIL6 at different concentrations, in the range of 0-100 nM, for each set of three HIL6 binders captured. […] The experiment was performed at 25° C. Signal associated with binding to the reference cell was used to subtract for bulk refractive changes and blank (buffer-only) injections were used to correct for drift and system noise. The kinetic parameters and affinities were determined using BIAevaluation software. Anti-HIL6 scFv molecules were analyzed in the reverse orientation using a dimeric human HIL6/mouse IgG Fc fusion protein captured by an immobilized rabbit polyclonal anti-mouse IgG Fc antibody on the surface and injecting different concentrations of scFv over the surface. For the HIL6 components IL6 (eBioscience, catalog no. 14-8069) and sIL6R, a single 100 nM injection was performed to obtain a qualitative assessment of binding.

[1] = target: T2, hu HIL6 Fc dimer (dimeric human HIL6/mouse IgG Fc fusion protein) (human); experiment: SPR Biacore T100, binder captured by anti-human Fc
T2 construct: also called human hyper-IL6 (IL6R-IL6-mIgG); dimeric HIL6
T2 chain: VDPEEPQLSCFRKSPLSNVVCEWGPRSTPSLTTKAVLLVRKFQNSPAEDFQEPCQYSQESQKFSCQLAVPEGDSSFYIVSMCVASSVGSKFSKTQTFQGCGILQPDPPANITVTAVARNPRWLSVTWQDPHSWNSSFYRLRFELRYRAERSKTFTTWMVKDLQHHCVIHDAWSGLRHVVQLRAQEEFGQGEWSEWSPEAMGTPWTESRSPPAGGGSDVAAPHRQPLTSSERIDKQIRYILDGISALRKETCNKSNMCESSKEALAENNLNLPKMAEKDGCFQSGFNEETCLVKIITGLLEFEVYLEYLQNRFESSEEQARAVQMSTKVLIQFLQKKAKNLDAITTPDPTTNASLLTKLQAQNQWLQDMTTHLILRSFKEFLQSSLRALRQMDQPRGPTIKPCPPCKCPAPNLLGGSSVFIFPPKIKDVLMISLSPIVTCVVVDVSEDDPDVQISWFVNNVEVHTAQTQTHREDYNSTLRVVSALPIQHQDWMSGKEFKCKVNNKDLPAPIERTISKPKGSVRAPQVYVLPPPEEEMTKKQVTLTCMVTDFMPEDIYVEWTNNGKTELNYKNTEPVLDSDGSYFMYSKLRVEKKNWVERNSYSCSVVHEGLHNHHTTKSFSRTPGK
Protocol: as §1, §2

hu HIL6 AFH monomer = target: B2; experiment: SPR Biacore T100, binder captured by anti-human Fc
Protocol: as §1, §2

IL6:sIL6R complex = target: T3, IL6:sIL6R complex (human, UniProt P05231 30-212; P08887 20-358); experiment: SPR Biacore, SMIP captured by anti-human Fc, complex injected
T3 construct: Non-covalent complex made by mixing 50 nM of each; about 30 nM complex estimated
Protocol: In every cycle, three different HIL6 binders were captured on flow cells 2, 3 and 4, while flow cell 1 was used as the reference cell. For each cycle, a single concentration of a single HIL6-related molecule was injected for 150 seconds at 35 microliters per minute, and then allowed to dissociate for 300 seconds. At the end of the cycle, the surface was regenerated gently using 3M MgCl₂, which dissociates protein bound to anti-hFc capture antibody. Multiple cycles were performed to study binding of monomeric or dimeric HIL6 at different concentrations, in the range of 0-100 nM, for each set of three HIL6 binders captured. […] The experiment was performed at 25° C. Signal associated with binding to the reference cell was used to subtract for bulk refractive changes and blank (buffer-only) injections were used to correct for drift and system noise. The kinetic parameters and affinities were determined using BIAevaluation software. Anti-HIL6 scFv molecules were analyzed in the reverse orientation using a dimeric human HIL6/mouse IgG Fc fusion protein captured by an immobilized rabbit polyclonal anti-mouse IgG Fc antibody on the surface and injecting different concentrations of scFv over the surface. For the HIL6 components IL6 (eBioscience, catalog no. 14-8069) and sIL6R, a single 100 nM injection was performed to obtain a qualitative assessment of binding.

[2] = target: T4, human gp130-Fc chimera (R&D Systems) (human, UniProt P40189 23-619); experiment: SPR Biacore T100, binder captured by anti-human Fc
T4 construct: Bought product; also called Human gp130-human IgG Fc fusion protein; soluble gp130; not shown: human IgG Fc
T4 sequence (looked up): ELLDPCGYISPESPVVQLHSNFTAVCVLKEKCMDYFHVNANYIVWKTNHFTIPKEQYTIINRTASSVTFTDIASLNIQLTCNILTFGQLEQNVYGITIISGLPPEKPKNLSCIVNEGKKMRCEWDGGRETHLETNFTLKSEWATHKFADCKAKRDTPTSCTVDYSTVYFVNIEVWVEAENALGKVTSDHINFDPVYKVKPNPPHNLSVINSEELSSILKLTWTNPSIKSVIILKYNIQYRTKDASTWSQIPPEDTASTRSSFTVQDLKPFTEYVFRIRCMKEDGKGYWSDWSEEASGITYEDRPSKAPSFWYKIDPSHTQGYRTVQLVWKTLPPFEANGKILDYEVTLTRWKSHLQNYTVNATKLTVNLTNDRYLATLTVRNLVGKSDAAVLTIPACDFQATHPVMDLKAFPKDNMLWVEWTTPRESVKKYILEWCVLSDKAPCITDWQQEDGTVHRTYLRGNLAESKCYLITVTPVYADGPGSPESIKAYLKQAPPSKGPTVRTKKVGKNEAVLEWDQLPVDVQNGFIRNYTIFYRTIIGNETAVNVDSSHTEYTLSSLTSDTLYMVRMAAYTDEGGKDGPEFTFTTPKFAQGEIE

[3] = target: T2, hu HIL6 Fc dimer (dimeric human …); experiment: SPR Biacore T100, HIL6-mouse Fc captured by anti-mouse Fc, scFv injected
sIL6R Fc dimer = target: B6; experiment: SPR Biacore T100, binder captured by anti-human Fc
Protocol: as §1, §2

Binder | binding result (recombinant human IL6) | Kd [1] [nM] | Kd (hu HIL6 AFH monomer) [nM] | Kd [3] [nM] | other results
B1 | no binding (tested: 100 nM) | 1.3 | 2 | – | binding result (IL6:sIL6R complex): binds
B2 | – | – | – | – | Kd [2]: 0.68 nM
B3 | – | – | – | 1.04 | –
B4 | no binding (tested: 100 nM) | 200 | 31 | – | binding result (sIL6R Fc dimer): no binding (tested: 100 nM)
B5 | – | – | – | 1.46 | –
B6 | – | – | – | – | binding result [2]: no binding (tested: 100 nM)
